Measured values published in publication PMC10269695, “HtpG Is a Metal-Dependent Chaperone Which Assists the DnaK/DnaJ/GrpE Chaperone System of Mycobacterium tuberculosis via Direct Association with DnaJ2” (Microbiology Spectrum, 2023).

Molecular target: T1, M. tuberculosis HtpG (high-temperature protein G) (M. tuberculosis H37Rv, UniProt P9WMJ7 1-647)
T1 construct: also called mHtpG; Rv2299c; not shown: GST, N-terminal, cleaved
T1 sequence: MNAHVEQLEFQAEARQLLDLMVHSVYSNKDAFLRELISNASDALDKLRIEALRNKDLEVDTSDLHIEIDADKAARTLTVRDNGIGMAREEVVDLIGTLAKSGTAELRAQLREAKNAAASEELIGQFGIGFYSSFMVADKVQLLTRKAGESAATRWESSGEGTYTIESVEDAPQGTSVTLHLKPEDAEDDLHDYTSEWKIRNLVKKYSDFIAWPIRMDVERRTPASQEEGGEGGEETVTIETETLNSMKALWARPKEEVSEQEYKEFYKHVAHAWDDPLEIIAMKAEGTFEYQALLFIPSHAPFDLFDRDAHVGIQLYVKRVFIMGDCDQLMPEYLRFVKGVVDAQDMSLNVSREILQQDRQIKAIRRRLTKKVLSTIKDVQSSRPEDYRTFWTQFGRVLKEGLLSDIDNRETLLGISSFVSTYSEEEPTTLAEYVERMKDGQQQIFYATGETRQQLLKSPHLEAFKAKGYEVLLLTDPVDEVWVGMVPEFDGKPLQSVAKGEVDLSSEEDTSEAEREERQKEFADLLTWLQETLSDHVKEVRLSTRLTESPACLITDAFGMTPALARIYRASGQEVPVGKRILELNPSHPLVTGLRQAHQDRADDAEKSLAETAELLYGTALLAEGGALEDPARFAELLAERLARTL
Experiment: BLI
Conditions: both partners purified

B1: M. tuberculosis DnaJ2 (natural protein)
chain: MARDYYGLLGVSKNASDADIKRAYRKLARELHPDVNPDEAAQAKFKEISVAYEVLSDPDKRRIVDLGGDPLESAAAGGNGFGGFGGLGDVFEAFFGGGFGGGAASRGPIGRVRPGSDSLLRMRLDLEECATGVTKQVTVDTAVLCDRCQGKGTNGDSVPIPCDTCGGRGEVQTVQRSLLGQMLTSRPCPTCRGVGVVIPDPCQQCMGDGRIRARREISVKIPAGVGDGMRVRLAAQGEVGPGGGPAGDLYVEVHEQAHDVFVREGDHLHCTVSVPMVDAALGVTVTVDAILDGLSEITIPPGTQPGSVITLRGRGMPHLRSNTRGDLHVHVEVVVPTRLDHQDIELLRELKGRRDREVAEVRSTHAAAGGLFSRLRETFTGR
notes: also called Rv2373c; not shown: GST, N-terminal, cleaved
B1 was tested, and the Kd was about 200 nM.
